Values quoted from earlier work as cited in paper PMC4475429.

Biological target: PKA RIα (Homo sapiens) (UniProt P10644)
Sequence (P10644 whole entry): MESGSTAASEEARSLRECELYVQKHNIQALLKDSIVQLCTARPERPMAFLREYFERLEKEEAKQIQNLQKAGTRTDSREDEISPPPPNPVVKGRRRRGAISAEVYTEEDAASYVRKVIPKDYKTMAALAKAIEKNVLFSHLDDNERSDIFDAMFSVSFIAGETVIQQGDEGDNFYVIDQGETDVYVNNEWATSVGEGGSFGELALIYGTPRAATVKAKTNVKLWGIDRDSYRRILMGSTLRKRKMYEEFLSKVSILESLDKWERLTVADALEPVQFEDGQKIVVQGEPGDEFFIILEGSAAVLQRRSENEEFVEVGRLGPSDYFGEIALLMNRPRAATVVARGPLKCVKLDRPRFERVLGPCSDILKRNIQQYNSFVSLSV

Sequence of Ht31 (Q12802 whole entry): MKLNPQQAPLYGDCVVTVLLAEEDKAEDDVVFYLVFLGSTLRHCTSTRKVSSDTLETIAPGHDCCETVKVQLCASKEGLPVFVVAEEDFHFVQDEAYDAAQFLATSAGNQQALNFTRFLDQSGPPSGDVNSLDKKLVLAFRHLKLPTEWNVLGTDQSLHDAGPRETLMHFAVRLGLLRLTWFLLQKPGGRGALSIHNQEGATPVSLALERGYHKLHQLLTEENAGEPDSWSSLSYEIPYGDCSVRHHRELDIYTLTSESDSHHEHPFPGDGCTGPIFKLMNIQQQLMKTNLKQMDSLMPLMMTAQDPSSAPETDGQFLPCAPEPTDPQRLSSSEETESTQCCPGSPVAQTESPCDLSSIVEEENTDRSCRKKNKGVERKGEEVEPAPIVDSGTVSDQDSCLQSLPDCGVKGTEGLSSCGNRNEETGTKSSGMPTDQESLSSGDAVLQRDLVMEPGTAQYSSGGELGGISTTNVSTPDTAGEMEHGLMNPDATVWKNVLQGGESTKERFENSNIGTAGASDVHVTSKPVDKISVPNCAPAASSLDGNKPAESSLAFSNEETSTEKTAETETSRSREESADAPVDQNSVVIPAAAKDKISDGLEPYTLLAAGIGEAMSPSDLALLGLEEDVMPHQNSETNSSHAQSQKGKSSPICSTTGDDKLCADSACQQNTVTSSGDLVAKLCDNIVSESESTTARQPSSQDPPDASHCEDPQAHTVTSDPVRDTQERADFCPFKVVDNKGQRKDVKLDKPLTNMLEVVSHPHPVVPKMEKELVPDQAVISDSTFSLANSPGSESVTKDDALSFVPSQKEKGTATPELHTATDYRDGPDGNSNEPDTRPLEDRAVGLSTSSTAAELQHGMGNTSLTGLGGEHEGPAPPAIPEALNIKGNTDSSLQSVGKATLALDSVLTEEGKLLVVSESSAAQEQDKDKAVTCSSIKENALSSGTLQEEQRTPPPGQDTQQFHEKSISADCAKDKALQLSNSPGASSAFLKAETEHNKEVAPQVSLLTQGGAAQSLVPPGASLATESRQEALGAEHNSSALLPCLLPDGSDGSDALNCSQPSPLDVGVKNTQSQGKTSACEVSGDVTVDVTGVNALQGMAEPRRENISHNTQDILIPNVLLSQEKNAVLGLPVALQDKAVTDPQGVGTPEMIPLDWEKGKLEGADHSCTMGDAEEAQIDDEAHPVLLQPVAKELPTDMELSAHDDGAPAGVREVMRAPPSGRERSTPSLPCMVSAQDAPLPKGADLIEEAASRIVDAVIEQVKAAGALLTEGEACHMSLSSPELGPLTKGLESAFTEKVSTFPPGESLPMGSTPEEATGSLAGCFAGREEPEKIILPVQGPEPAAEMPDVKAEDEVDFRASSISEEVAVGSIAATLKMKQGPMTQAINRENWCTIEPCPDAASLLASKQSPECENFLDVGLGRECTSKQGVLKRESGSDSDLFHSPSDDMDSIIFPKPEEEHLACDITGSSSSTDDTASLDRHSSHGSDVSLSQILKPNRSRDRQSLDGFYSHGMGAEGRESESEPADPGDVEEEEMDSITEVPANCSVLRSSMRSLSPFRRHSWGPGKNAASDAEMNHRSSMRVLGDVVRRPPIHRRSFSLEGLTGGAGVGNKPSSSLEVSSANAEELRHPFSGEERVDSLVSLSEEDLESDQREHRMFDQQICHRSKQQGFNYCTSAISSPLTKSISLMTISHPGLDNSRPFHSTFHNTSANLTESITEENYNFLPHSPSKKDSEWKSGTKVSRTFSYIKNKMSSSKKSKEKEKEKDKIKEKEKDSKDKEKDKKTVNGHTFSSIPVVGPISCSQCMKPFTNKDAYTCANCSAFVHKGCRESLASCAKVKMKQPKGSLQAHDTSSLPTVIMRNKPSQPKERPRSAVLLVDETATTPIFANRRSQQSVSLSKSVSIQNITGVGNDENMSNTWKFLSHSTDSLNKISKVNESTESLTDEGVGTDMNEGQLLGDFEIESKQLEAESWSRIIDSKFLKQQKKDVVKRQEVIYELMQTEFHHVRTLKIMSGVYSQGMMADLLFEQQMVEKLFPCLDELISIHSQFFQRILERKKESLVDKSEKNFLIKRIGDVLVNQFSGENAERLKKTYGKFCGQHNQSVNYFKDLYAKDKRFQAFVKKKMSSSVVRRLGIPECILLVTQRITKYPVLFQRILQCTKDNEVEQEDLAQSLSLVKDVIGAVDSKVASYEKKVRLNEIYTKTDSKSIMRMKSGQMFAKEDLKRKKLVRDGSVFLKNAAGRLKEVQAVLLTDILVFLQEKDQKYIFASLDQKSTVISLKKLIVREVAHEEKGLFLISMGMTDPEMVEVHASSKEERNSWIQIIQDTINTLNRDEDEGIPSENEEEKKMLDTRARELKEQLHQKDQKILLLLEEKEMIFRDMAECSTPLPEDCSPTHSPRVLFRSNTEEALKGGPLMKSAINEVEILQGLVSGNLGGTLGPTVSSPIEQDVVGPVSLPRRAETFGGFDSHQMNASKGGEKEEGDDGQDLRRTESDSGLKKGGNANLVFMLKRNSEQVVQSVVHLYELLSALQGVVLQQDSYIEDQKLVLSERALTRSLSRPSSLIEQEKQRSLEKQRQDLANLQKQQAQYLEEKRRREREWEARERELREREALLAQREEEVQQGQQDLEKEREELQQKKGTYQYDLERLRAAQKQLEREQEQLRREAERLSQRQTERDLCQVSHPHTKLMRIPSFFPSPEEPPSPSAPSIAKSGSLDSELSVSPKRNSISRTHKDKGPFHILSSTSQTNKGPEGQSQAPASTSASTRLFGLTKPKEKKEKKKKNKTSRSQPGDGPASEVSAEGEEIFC

In the case of Ht31 (from UniProt Q12802), the Kd is listed as 2.1 µM.
